Laboratory results taken from the DeepSol protein solubility set.

Assay: soluble on expression in E. coli; label from the status in PepcDB or PDB records

Sequence	soluble on expression in E. coli
MKKVGVVIPIYNVEKYLKECLDSVINQTYTNLEIILVNDGSTDENSLNIAKEYTLKDKRIILFDKKNGGLSSARNVGIEYFSGEYETQYIEKENELNVFKIIGDNPQNIYKIYKYKNALASDKLEISKIDYIIFLDSDNYWELNCIEECVVRMQNVDVLWFDHACIYDDGIEDKGQKTRMNVFNFTQECTITPRDYAKQAIKVGSRDISFSWGGMIDFSFLKQLKLKFINKIINEDIHFGMVLFASADSIYILPKRLYLCRLRANSISNHDKKVTKANVSEYFKDLYEFFGENAKEAKNYLKAASRMITALELIEFFKDQKNENSQAIKEAFLPFYVKKALMIKKFKKDPLNLKEKLPIIKPFIQTKIPYDLWKIWQKIKGILDKINFAK	soluble
MGSDKIHHHHHHMARIPRFALVERDSSNHCTWRAHDFEHVLEEAGATDKFLELLGRYKEKYGVEINSYCLMGTHPHVTCTTRRDQEQFSRFWQVVNGQFARWYNKRRERRGQVVMERMRSPRIQAEGAHQLTVMRYGDLNPVRAGLVKSPKDWKWSSYRHYAFGEPDPLIDDAPEYLALGKTGPQRRKAYQALFALPLSESLRTRRIDLVEYPFVGDAHWVMHRLDVAGLSPPD	not soluble
MPFPVTTQGSQQTQPPQKHYGITSPISLAAPKETDCLLTQKLVETLKPFGVFEEEEELQRRILILGKLNNLVKEWIREISESKNLPQSVIENVGGKIFTFGSYRLGVHTKGADIDALCVAPRHVDRSDFFTSFYDKLKLQEEVKDLRAVEEAFVPVIKLCFDGIEIDILFARLALQTIPEDLDLRDDSLLKNLDIRCIRSLNGCRVTDEILHLVPNIDNFRLTLRAIKLWAKRHNIYSNILGFLGGVSWAMLVARTCQLYPNAIASTLVHKFFLVFSKWEWPNPVLLKQPEECNLNLPVWDPRVNPSDRYHLMPIITPAYPQQNSTYNVSVSTRMVMVEEFKQGLAITDEILLSKAEWSKLFEAPNFFQKYKHYIVLLASAPTEKQRLEWVGLVESKIRILVGSLEKNEFITLAHVNPQSFPAPKENPDKEEFRTMWVIGLVFKKTENSENLSVDLTYDIQSFTDTVYRQAINSKMFEVDMKIAAMHVKRKQLHQLLPSHVLQKKKKHSTEGV	soluble
SSSLKIASTQEARQYFDTDRVVVDAVGSDFTDVGAVIAMDYETDVIDAADATKFGIPVFAVTKDAQAISADELKKIFHIIDLENKFDATVNAREIETAVNNYEDSILPPFFKSLKEYVSRYLIQFDCPGHQGGQYYRKHPAGREFYDFFGETVFRADLCNADVALGDLLIHEGPAVAAEKHAARVYNADKTYFVLGGSSNANNTVTSALVSNGDLVLFDRNNHKSVYNSALAMAGGRPVYLQTNRNPYGFIGGIYDSDFDEKKIRELAAKVDPERAKWKRPFRLAVIQLGTYDGTIYNAHEVVKRIGHLCDYIEFDSAWVGYEQFIPMMRNSSPLLIDDLGPEDPGIIVVQSVHKQQAGFSQTSQIHKKDSHIKGQLRYCDHKHFNNSFNLFMSTSPFYPMYAALDVNAAMQEGEAGRKLWHDLLITTIEARKKLIKAGSMFRPFVPPVVNGKKWEDGDTEDMANNIDYWRFEKGAKWHAYEGYGDNQYYVDPNKFMLTTPGINPETGDYEDFGVPATIVANYLRDHGIIPEKSDLNSILFLMTPAETPAKMNNLITQLLQLQRLIEEDAPLKQVLPSIYAANEERYNGYTIRELCQELHDFYKNNNTFTYQKRLFLREFFPEQGMLPYEARQEFIRNHNKLVPLNKIEGEIALEGALPYPPGVFCVAPGEKWSETAVKYFTILQDGINNFPGFAPEIQGVYFKQEGDKVVAYGEVYDAEVAKNDDRYNN	soluble
MGSDKIHHHHHHMIHVAHHYEMRHPTADIQETSMSSAQEERLRFIDFRLMFLGDVSRQDLTDRFGISEPAATRDLTQYRERCAANMEYSHVQRAYLRNYNFAPLYDHESTEALAMIAHGHLALPRRERKPLLRCDLPIQLDSPDSMVVSTITRAINHQHVISIDYRSHSSGETRRQIVPFALVDNGLRWHIRAYDRRRLRFSDFVISRISNPTIEESVVLTHERWEHDIQWNRIVELELVPHPKRPHPETTLFEYGMVNGISRLRVRAAVAGYFLRRWNVDCSPDHCLEGNEYQLWLKNRETLYGVETLEIAPGYL	not soluble
GPGSMGEGRIRCYYEVLEVERKATYDEIRTAYKKKSLQYHPDKNYGNQEEAAMRFKEVQNAYSILSDADERAWYDSHREAILRGGDGTGDLDELNLYEYFTAGCFDGFDDGESGFYTVYRKVFDILIEEESDYDSRAKLWPGFGTSTSDWADVQKFYGYWRNFSTYKTFTWKDEYKVNEMEDRYSRRMAGRINSKARDGAKKEYVRTVQSLAQFVYRRDPRVKAELERQEKEDQAKREERERQEIERLKRRREANERVWAEAAEREAREEAERAARGEAMDGSILEMLYEKERQTKEMMRGSGGVGAHTAGFAMLGGDDDEAVTVFNCPACKKQFKSENQYKEHVRSNKHKTKLKQLAAKGTDVAALMGEKVEGGSGGTEE	soluble
